Results from patent US20220048967A1 (published 2022).
Numbered stars: 1 amine (or outer) side, 2 acyl side, 3 side chain; on linkers, the order of the positions; unused ones are H or OH. Square brackets hold non-standard residues; d marks the D form. Side chains are listed from the residue outwards. Ends that are not written are not given here. * marks the point of attachment. C20 diacid = O=C(O)CCCCCCCCCCCCCCCCCCC(=O)*; γGlu = O=C(O)[C@H](CCC(=O)[*:2])N[*:1]; αMeL = CC(C)C[C@](C)(N)C(=O)O; Dab = NCC[C@H](N)C(=O)O; Dap = NC[C@H](N)C(=O)O; AEEA = NCCOCCOCC(=O)O; Aib = CC(C)(N)C(=O)O

Tests used:
[1] = molecular target: human GLP-1 receptor (human, UniProt P43220 24-463); assay: cell-based or functional assay
[2] = molecular target: Pro-Link-tagged Human GLP-1R (human, UniProt P43220 24-463); assay: cell-based or functional assay

Binder | hGLP1R GTPgS % Top [1] | hGLP1R GTPgS Rel EC50 [1] | hGLP1R B-Arrestin2 % Top [2] | hGLP1R B-Arrestin2 Rel EC50 [2]
[dY][Aib]EGTFTSDYSI[αMeL]LD[Dap]K([AEEA-AEEA-γGlu-C20 diacid])AQ[Aib]EFIEYLIAGGPSSGAPPPS-NH2 (N-terminus assumed; SMILES CC[C@H](C)[C@H](NC(=O)[C@H](CC(C)C)NC(=O)[C@H](Cc1ccc(O)cc1)NC(=O)[C@H](CCC(=O)O)NC(=O)[C@@H](NC(=O)[C@H](Cc1ccccc1)NC(=O)[C@H](CCC(=O)O)NC(=O)C(C)(C)NC(=O)[C@H](CCC(N)=O)NC(=O)[C@H](C)NC(=O)[C@H](CCCCNC(=O)COCCOCCNC(=O)COCCOCCNC(=O)CC[C@H](NC(=O)CCCCCCCCCCCCCCCCCCC(=O)O)C(=O)O)NC(=O)[C@H](CN)NC(=O)[C@H](CC(=O)O)NC(=O)[C@H](CC(C)C)NC(=O)[C@](C)(CC(C)C)NC(=O)[C@@H](NC(=O)[C@H](CO)NC(=O)[C@H](Cc1ccc(O)cc1)NC(=O)[C@H](CC(=O)O)NC(=O)[C@H](CO)NC(=O)[C@@H](NC(=O)[C@H](Cc1ccccc1)NC(=O)[C@@H](NC(=O)CNC(=O)[C@H](CCC(=O)O)NC(=O)C(C)(C)NC(=O)[C@H](N)Cc1ccc(O)cc1)[C@@H](C)O)[C@@H](C)O)[C@@H](C)CC)[C@@H](C)CC)C(=O)N[C@@H](C)C(=O)NCC(=O)NCC(=O)N1CCC[C@H]1C(=O)N[C@@H](CO)C(=O)N[C@@H](CO)C(=O)NCC(=O)N[C@@H](C)C(=O)N1CCC[C@H]1C(=O)N1CCC[C@H]1C(=O)N1CCC[C@H]1C(=O)N[C@@H](CO)C(N)=O) [Example 351] | 66.5% | 0.563 nM | 23.5% | 0.0196 µM
[dY][Aib]EGTFTSDYSI[αMeL]LD[Dab]K([AEEA-AEEA-γGlu-C20 diacid])AQ[Aib]EFIEYLIAGGPSSGAPPPS-NH2 (N-terminus assumed; SMILES CC[C@H](C)[C@H](NC(=O)[C@H](CC(C)C)NC(=O)[C@H](Cc1ccc(O)cc1)NC(=O)[C@H](CCC(=O)O)NC(=O)[C@@H](NC(=O)[C@H](Cc1ccccc1)NC(=O)[C@H](CCC(=O)O)NC(=O)C(C)(C)NC(=O)[C@H](CCC(N)=O)NC(=O)[C@H](C)NC(=O)[C@H](CCCCNC(=O)COCCOCCNC(=O)COCCOCCNC(=O)CC[C@H](NC(=O)CCCCCCCCCCCCCCCCCCC(=O)O)C(=O)O)NC(=O)[C@H](CCN)NC(=O)[C@H](CC(=O)O)NC(=O)[C@H](CC(C)C)NC(=O)[C@](C)(CC(C)C)NC(=O)[C@@H](NC(=O)[C@H](CO)NC(=O)[C@H](Cc1ccc(O)cc1)NC(=O)[C@H](CC(=O)O)NC(=O)[C@H](CO)NC(=O)[C@@H](NC(=O)[C@H](Cc1ccccc1)NC(=O)[C@@H](NC(=O)CNC(=O)[C@H](CCC(=O)O)NC(=O)C(C)(C)NC(=O)[C@H](N)Cc1ccc(O)cc1)[C@@H](C)O)[C@@H](C)O)[C@@H](C)CC)[C@@H](C)CC)C(=O)N[C@@H](C)C(=O)NCC(=O)NCC(=O)N1CCC[C@H]1C(=O)N[C@@H](CO)C(=O)N[C@@H](CO)C(=O)NCC(=O)N[C@@H](C)C(=O)N1CCC[C@H]1C(=O)N1CCC[C@H]1C(=O)N1CCC[C@H]1C(=O)N[C@@H](CO)C(N)=O) [Example 350] | 64.1% | 0.589 nM | 21.8% | 0.0108 µM
[dY][Aib]EGTFTSDYSI[αMeL]LD[Dap]K([AEEA-AEEA-γGlu-C20 diacid])AQ[Aib]AFIEYLIAGGPSSGAPPPS-NH2 (N-terminus assumed; SMILES CC[C@H](C)[C@H](NC(=O)[C@H](CC(C)C)NC(=O)[C@H](Cc1ccc(O)cc1)NC(=O)[C@H](CCC(=O)O)NC(=O)[C@@H](NC(=O)[C@H](Cc1ccccc1)NC(=O)[C@H](C)NC(=O)C(C)(C)NC(=O)[C@H](CCC(N)=O)NC(=O)[C@H](C)NC(=O)[C@H](CCCCNC(=O)COCCOCCNC(=O)COCCOCCNC(=O)CC[C@H](NC(=O)CCCCCCCCCCCCCCCCCCC(=O)O)C(=O)O)NC(=O)[C@H](CN)NC(=O)[C@H](CC(=O)O)NC(=O)[C@H](CC(C)C)NC(=O)[C@](C)(CC(C)C)NC(=O)[C@@H](NC(=O)[C@H](CO)NC(=O)[C@H](Cc1ccc(O)cc1)NC(=O)[C@H](CC(=O)O)NC(=O)[C@H](CO)NC(=O)[C@@H](NC(=O)[C@H](Cc1ccccc1)NC(=O)[C@@H](NC(=O)CNC(=O)[C@H](CCC(=O)O)NC(=O)C(C)(C)NC(=O)[C@H](N)Cc1ccc(O)cc1)[C@@H](C)O)[C@@H](C)O)[C@@H](C)CC)[C@@H](C)CC)C(=O)N[C@@H](C)C(=O)NCC(=O)NCC(=O)N1CCC[C@H]1C(=O)N[C@@H](CO)C(=O)N[C@@H](CO)C(=O)NCC(=O)N[C@@H](C)C(=O)N1CCC[C@H]1C(=O)N1CCC[C@H]1C(=O)N1CCC[C@H]1C(=O)N[C@@H](CO)C(N)=O) [Example 348] | 47.7% | 0.66 nM | 19.8% | 0.00346 µM
XXEGTFTSDYSIXLDXKAQXEFIEYLIAGGPSSGAPPPS (D-Tyr1, Aib2, αMeL13, Orn16, K17 conjugated to (2-[2-(2-Amino-ethoxy)-ethoxy]-acetyl)2-(γ-Glu)-CO-(CH2)18-CO2H, Aib20, C-terminal amide (NH2)) [Example 349] | 64.5% | 0.464 nM | 18.4% | 0.0151 µM
XXEGTFTSDYSIXLDXKAQXAFIXYLIAGGPSSGAPPPS (D-Tyr1, Aib2, αMeL13, Orn16, K17 conjugated to (2-[2-(2-Amino-ethoxy)-ethoxy]-acetyl)2-(γ-Glu)-CO-(CH2)18-CO2H, Aib20, D-Glu24, C-terminal amide (NH2)) [Example 291] | 65% | 0.466 nM | – | > 10 µM
XXEGTFTSDYSIXLDXKAQXEFVEYLIAGGPSSGAPPPS (D-Tyr1, Aib2, αMeL13, Orn16, K17 conjugated to (2-[2-(2-Amino-ethoxy)-ethoxy]-acetyl)2-(γ-Glu)-CO-(CH2)18-CO2H, Aib20, C-terminal amide (NH2)) [Example 359] | 69.7% | 0.496 nM | 28.4% | 0.0841 µM
XXEGTFTSDYSIXLDXKAQXAFVEYLIAGGPSSGAPPPS (D-Tyr1, Aib2, αMeL13, Orn16, K17 conjugated to (2-[2-(2-Amino-ethoxy)-ethoxy]-acetyl)2-(γ-Glu)-CO-(CH2)18-CO2H, Aib20, C-terminal amide (NH2)) [Example 358] | 72.3% | 0.414 nM | 21.4% | 0.00938 µM
